According to patent US20190071493A1 (SCHOLAR ROCK, published 2019):

Key:
proTGFβ2 = biological target: T1, proTGFβ2 (Chlorocebus aethiops (Green monkey) …, UniProt P61811 20-414); test: ELISA
T1 sequence: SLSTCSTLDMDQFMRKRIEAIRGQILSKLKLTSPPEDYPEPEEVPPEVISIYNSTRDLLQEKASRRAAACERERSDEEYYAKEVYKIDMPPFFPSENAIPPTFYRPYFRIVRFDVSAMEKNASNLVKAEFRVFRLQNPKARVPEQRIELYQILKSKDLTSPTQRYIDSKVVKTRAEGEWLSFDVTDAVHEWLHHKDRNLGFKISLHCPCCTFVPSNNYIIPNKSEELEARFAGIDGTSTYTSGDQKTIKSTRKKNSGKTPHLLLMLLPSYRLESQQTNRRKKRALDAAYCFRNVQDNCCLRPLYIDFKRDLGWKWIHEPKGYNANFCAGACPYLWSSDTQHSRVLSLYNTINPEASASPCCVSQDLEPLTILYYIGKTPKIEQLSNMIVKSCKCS

proTGFβ3 = biological target: T2, proTGFβ3 (Homo sapiens (Human), UniProt P10600 24-412); test: ELISA
T2 sequence: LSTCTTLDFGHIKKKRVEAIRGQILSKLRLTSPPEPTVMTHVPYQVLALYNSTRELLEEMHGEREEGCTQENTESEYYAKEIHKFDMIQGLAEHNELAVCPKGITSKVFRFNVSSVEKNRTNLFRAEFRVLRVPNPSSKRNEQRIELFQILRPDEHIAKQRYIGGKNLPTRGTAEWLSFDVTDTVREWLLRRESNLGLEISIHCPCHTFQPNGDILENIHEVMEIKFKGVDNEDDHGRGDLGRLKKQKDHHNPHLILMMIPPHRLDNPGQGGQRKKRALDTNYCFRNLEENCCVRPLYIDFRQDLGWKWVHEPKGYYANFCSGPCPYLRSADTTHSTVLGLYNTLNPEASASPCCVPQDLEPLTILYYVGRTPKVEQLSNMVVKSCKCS

[1] = biological target: rat LTBP1-proTGFβ1 complex (rat, UniProt Q00918 339-1712; P17246 30-390); test: Octet (BLI) binding assay as in Table 6
Sequence of rat LTBP1-proTGFβ1 complex (Q00918 339-1712, chain 1 of 2): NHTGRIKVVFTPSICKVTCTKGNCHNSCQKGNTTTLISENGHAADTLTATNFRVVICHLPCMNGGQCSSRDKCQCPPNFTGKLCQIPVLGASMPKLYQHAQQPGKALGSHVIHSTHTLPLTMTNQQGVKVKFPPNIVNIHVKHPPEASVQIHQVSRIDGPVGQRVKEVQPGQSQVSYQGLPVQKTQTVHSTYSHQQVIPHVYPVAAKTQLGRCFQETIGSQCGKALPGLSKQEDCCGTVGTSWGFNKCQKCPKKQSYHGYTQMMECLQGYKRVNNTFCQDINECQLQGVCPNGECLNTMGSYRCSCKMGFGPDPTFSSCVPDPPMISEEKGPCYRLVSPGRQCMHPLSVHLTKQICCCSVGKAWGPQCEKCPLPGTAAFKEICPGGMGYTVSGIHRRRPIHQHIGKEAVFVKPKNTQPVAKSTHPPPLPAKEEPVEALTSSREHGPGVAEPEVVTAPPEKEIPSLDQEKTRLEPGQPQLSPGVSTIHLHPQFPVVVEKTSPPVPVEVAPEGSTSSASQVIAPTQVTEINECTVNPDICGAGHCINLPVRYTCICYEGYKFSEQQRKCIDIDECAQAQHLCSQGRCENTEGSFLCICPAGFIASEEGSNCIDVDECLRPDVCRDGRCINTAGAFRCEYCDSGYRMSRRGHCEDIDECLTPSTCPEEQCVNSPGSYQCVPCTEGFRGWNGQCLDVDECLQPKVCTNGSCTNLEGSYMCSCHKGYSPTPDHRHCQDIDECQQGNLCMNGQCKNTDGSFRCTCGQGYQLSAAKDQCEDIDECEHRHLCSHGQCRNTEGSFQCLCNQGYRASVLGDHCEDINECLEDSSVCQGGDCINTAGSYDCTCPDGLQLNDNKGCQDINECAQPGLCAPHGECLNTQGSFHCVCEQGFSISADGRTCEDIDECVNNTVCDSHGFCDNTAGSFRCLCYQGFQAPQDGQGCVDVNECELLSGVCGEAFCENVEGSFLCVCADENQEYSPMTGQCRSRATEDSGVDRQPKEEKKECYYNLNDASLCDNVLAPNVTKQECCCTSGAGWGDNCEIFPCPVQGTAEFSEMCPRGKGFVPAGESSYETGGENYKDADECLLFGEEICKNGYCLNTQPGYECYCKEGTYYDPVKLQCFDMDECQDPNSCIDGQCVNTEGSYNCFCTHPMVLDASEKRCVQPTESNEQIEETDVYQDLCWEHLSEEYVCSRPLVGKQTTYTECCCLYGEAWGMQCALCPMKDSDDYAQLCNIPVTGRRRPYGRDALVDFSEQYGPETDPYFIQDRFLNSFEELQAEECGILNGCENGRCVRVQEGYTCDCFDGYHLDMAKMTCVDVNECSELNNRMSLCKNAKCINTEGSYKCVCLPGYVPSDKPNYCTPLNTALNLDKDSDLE
Sequence of rat LTBP1-proTGFβ1 complex (P17246 30-390, chain 2 of 2): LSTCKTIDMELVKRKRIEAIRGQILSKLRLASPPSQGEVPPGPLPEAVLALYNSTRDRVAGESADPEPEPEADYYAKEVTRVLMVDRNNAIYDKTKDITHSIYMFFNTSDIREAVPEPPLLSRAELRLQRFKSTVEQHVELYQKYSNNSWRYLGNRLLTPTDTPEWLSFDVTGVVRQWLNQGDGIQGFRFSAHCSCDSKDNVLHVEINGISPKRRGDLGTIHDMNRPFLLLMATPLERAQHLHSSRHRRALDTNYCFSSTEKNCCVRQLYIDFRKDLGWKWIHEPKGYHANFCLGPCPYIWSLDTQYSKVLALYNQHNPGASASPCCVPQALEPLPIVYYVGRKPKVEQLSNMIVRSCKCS
Experimental: a. Dilute both antibodies to 50 μg/mL in 300 μl of 1x buffer in row A. b. Add 200 μl of buffer to the rest of each column c. Transfer 100 μl down the column to make 3-fold dilutions

Binder | binding result (proTGFβ2) | binding result (proTGFβ3) | binding result [1]
Ab2 (antibody, V domains shown, also called antibody Ab2; clone Ab2) VH: EVQLVQSGAEMKKPGESLKISCKGSGYNFASDWIGWVRQTPGKGLEWMGVIYPGDSDTRYSASFQGQVTISADKSINTAYLQWSSLKASDTAMYYCASAAGIAAAGHVTAFDIWGQGTMVTVSS VL: not shown | no binding | no binding | –
Ab1 (antibody, human IgG4 S228P, lambda, V domains shown, also called antibody Ab1; clone Ab1) VH: EVQLVESGGGLVQPGRSLRLSCAASGFTFSSYGMHWVRQAPGKGLEWVAVISYDGSNKYYADSVKGRFTISRDNSKNTLYLQMNSLRAEDTAVYYCARDIRPYGDYSAAFDIWGQGTLVTVSS VL: NFMLTQPHSVSESPGKTVTISCTGSSGSIASNYVQWYQQRPGSAPSIVIFEDNQRPSGAPDRFSGSIDSSSNSASLTISGLKTEDEADYYCQSYDSSNHGGVFGGGTQLTVLG | no binding | no binding | no binding
